From paper PMC8369199 come the findings set out here.

For test [1], the target named is MMP-9 cleaved TRZ-Fc4 (human). In words: BLI; antibody variant on anti-human Fab-CH1 (Fab2G) sensors; FcγRI 6.25, 12.5, 25, 50 nM, then dissociation in kinetics buffer; 1:1 Langmuir model.
The target of test [2] is trastuzumab (human). The test is described as above.
The target in test [3] is human complement C1q (human) (UniProt P02745). Briefly: BLI.
Test [4] deals with FcγRIIIa V158 (high-affinity variant of FcγRIIIa) on engineered ADCC reporter effector cells.

Chain of His-tagged human Fc gamma RI (CD64) (P12314 16-292): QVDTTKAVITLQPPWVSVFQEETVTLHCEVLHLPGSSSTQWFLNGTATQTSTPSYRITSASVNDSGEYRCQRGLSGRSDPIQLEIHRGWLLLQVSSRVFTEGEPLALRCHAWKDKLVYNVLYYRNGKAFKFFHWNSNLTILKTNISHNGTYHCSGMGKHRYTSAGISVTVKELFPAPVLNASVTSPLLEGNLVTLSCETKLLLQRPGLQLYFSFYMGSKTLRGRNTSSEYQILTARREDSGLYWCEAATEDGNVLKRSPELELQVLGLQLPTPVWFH
Chain of human complement C1q (human) (P02745 23-245, chain 1 of 3): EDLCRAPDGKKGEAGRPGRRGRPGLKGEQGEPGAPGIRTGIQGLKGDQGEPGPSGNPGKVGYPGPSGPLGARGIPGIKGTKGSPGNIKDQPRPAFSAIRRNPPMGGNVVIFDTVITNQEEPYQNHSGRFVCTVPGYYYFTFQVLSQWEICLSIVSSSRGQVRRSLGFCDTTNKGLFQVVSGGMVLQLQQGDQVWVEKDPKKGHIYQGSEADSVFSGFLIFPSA
Chain of human complement C1q (human) (P02746 28-253, chain 2 of 3, further chain): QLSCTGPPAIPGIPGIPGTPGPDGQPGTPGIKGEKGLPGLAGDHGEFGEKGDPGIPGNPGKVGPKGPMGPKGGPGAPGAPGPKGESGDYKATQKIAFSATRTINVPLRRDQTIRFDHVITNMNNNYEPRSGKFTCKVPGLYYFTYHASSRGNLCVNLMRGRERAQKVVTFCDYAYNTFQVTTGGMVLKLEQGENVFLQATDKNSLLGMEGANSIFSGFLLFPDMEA
Chain of human complement C1q (human) (P02747 29-245, chain 3 of 3, further chain): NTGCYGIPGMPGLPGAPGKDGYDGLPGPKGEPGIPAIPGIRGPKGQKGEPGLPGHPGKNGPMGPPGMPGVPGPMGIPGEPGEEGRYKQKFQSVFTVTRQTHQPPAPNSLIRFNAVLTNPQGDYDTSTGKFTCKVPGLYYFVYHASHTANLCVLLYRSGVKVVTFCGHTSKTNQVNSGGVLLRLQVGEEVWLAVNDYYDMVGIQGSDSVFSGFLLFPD

“His-tagged human Fc gamma RI (CD64) (from UniProt P12314 16-292) (receptor)”: the Kd is 1.6 nM in test [1] and 1.3 nM in test [2].

Regarding trastuzumab, the Kd in test [3] was found to be 209 nM.

In test [4], trastuzumab (antibody) returned an ADCC reporter assay, fold induction, SK-BR-3 target cells, with MMP-2/MMP-9 inhibitor, antibody 10 fM to 100 nM; highest induction, reached at 1 nM (fold induction) of 57.6 and an EC50 of ADCC reporter induction, SK-BR-3 target cells of 0.039 nM.
